Measurements reported in patent EP2112167A2 (Genentech, Inc., dated 2009).

Legend:
[1] = target: T1, ErbB4 (UniProt Q15303 26-649, limits assumed); assay: not described
T1 construct: also called HER4
T1 sequence (looked up): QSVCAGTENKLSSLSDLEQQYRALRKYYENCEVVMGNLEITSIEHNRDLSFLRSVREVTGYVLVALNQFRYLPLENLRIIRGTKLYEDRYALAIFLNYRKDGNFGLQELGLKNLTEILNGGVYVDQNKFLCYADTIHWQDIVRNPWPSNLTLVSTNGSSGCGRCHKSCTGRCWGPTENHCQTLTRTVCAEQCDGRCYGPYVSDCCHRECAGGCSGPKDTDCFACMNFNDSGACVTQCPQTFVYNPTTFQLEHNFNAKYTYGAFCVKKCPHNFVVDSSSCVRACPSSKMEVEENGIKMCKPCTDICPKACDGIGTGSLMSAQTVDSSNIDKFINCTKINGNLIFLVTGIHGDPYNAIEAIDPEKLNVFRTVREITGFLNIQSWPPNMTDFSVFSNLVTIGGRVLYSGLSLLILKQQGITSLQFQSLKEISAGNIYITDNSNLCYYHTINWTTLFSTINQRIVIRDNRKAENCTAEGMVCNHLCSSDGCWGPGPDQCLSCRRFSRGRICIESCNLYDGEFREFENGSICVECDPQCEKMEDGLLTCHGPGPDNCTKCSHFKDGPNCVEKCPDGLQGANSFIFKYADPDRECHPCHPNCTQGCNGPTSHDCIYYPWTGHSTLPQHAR

[2] = target: T2, ErbB3 (human, UniProt P21860 20-1342); assay: not described
T2 construct: whole, on cells; In the co-immunoprecipitation it is the endogenous receptor of the cells (lysates); also called HER3

[3] = target: T3, EGFR (UniProt P00533 25-645, limits assumed); assay: not described (cited: Fendly et al.)
T3 construct: also called ErbB1; epidermal growth factor receptor

Measured: binding result

T2 sequence (P21860 20-1342): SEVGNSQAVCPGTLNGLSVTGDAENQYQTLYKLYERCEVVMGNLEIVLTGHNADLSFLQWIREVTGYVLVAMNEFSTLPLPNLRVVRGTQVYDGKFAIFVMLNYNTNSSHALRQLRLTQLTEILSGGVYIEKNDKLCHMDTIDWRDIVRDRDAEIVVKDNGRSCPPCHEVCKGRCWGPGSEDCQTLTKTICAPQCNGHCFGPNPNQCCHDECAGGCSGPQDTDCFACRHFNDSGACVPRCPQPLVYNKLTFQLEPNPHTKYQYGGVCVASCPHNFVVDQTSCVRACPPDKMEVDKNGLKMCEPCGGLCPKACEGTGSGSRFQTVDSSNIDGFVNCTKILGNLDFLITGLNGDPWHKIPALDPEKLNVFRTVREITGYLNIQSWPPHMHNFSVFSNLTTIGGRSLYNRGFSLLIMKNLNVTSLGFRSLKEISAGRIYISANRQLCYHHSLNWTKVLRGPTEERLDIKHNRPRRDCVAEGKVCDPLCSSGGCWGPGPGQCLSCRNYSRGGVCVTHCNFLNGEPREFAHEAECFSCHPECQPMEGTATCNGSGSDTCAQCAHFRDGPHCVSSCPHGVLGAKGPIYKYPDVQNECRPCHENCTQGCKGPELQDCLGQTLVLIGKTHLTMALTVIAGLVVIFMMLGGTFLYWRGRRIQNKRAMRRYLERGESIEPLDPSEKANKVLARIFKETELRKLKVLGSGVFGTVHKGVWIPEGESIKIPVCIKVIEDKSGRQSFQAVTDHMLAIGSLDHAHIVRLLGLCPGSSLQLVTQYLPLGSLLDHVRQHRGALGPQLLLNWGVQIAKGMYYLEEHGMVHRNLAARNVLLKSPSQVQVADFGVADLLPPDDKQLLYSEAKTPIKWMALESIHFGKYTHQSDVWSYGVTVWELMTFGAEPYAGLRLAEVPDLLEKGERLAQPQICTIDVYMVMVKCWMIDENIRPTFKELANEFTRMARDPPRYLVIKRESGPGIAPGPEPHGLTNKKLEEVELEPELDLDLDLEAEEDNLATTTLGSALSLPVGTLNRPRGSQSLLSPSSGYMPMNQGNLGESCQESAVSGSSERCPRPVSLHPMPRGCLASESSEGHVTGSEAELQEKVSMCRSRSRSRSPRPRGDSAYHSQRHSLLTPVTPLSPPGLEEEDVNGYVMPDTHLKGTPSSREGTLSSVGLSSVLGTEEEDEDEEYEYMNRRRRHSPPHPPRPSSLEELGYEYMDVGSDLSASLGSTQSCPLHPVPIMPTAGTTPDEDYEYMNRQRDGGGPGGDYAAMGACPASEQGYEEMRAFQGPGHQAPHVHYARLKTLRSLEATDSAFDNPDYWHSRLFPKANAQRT

B1: murine monoclonal antibody 2C4 (antibody, V domains shown)
VH: EVQLQQSGPELVKPGTSVKISCKASGFTFTDYTMDWVKQSHGKSLEWIGDVNPNSGGSIYNQRFKGKASLTVDRSSRIVYMELRSLTFEDTAVYYCARNLGPSFYFDYWGQGTTLTVSS
VL: DTVMTQSHKIMSTSVGDRVSITCKASQDVSIGVAWYQQRPGQSPKLLIYSASYRYTGVPDRFTGSGSGTDFTFTISSVQAEDLAVYYCQQYYIYPYTFGGGTKLEIK
notes: Intact murine monoclonal antibody from hybridoma; also called mu 2C4; ATCC HB-12697
no binding: all assays above
